From PMC8224932 (FEBS letters, 2020)
No end group written: not given here. TAMRA = carboxytetramethylrhodamine

T1: ^15N,^13C-labeled Sin3A PAH1 (mouse, UniProt Q60520 119-195)
T1 sequence (looked up): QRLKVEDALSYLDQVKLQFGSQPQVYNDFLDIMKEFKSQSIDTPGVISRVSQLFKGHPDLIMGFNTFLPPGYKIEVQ

T2: GST-tagged Sin3A PAH1 (mouse, UniProt Q60520 119-195)
T2 sequence (looked up): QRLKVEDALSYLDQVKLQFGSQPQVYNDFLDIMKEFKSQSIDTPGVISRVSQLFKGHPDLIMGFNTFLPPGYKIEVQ


Columns and labels:
[1] = target: T1, ^15N,^13C-labeled Sin3A PAH1; assay: NMR titration
GST-tagged Sin3A PAH1 = target: T2, GST-tagged Sin3A PAH1; assay: fluorescence polarisation

| binding result [1] | Kd (GST-tagged Sin3A PAH1) [µM] | Binder |
| --- | --- | --- |
| binds |  | EYDNYDELVAKSLLNLGKIAED (peptide, UniProt Q9UL68 193-214, looked up) [Myt1L^193−214 SID peptide (released from MBP)] |
|  | 6 ± 0.9 | {TAMRA}-EYDNYDELVAKSLLNLGKIAED (peptide, UniProt Q9UL68 193-214, looked up) [TAMRA-conjugated Myt1L^193−214 SID peptide] |
